What all share (assay): SEC; Superose12 10/300 GL, lysis buffer for native purification, 0.4 ml/min; concentrated Ni2+-NTA eluate of GFP-perlucin (~20 mg/ml); peak fractions analysed by SDS-PAGE; sizes estimated against gel filtration standards (12 kDa - 2 MDa)
For experiment [1], the target named is His-tagged GFP-perlucin derivative lacking 15 C-terminal amino acids (395 amino acids, 45 kDa) (Aequorea victoria | Haliotis laevigata) (UniProt P82596).
For experiment [2], the target named is full length His-tagged GFP-perlucin (410 amino acids, 46.8 kDa) (Aequorea victoria | Haliotis laevigata) (UniProt P82596).
Experiment [3] has as its target truncated His-tagged GFP-perlucin lacking 141 C-terminal amino acids (Aequorea victoria | Haliotis laevigata) (UniProt P82596).
The target in experiment [4] is truncated His-tagged GFP-perlucin lacking 145 C-terminal amino acids (Aequorea victoria | Haliotis laevigata) (UniProt P82596).

The source of these data is PMC3463529.

On to “truncated His-tagged GFP-perlucin lacking 141 C-terminal amino acids (from UniProt P82596 1-14)”, for which the polypeptide chains in the complex (peak A, 395aa/410aa and truncated variants together) (polypeptide chains) in experiment [1] and in experiment [2] was 50 in each case. Besides, the stoichiometry N (polypeptide chains) in experiment [3] was 3 to 5.

Turning to “truncated His-tagged GFP-perlucin lacking 145 C-terminal amino acids (from UniProt P82596 1-10)”, the polypeptide chains in the complex (peak A, 395aa/410aa and truncated variants together) (polypeptide chains) in experiment [1] and in experiment [2] was 50 in each case. In addition, the stoichiometry N (polypeptide chains) in experiment [4] is 3 to 5.
